# Numbering of substitutions follows the chain as printed.
# B1: PR007142 (bispecific antibody, human IgG1, kappa)
# light: DIQMTQSPSTLSASVGDRVTVTCRASQSIYIWLAWYQQKPGKAPNLLIYKASSLETGVPSRFSGSGSGTEFTLTISSLQPDDFATYYCQQYYGSSRTFGQGTKVEIKRTVAAPSVFIFPPSDEQLKSGTASVVCLLNNFYPREAKVQWKVDNALQSGNSQESVTEQDSKDSTYSLSSTLTLSKADYEKHKVYACEVTHQGLSSPVTKSFNRGEC
# heavy: EVQLVESGGGLVQPGGSLRLSCAASGFTFSSYWMSWVRQAPGKGLEWVANIKQEGSEKYYVDSVKGRFTISRDNAKNSLYLQMNSLRAEDTAVYYCARDRAVAGAFDIWGQGTMVTVSSASTKGPSVFPLAPSSKSTSGGTAALGCLVKDYFPEPVTVSWNSGALTSGVHTFPAVLQSSGLYSLSSVVTVPSSSLGTQTYICNVNHKPSNTKVDKKVEPKSCDKTHTCPPCPAPEAAGAPSVFLFPPKPKDTLMISRTPEVTCVVVDVSHEDPEVKFNWYVDGVEVHNAKTKPREEQYNSTYRVVSVLTVLHQDWLNGKEYKCKVSNKALPAPIEKTISKAKGQPREPQVYTLPPSREEMTKNQVSLTCLVKGFYPSDIAVEWESNGQPENNYKTTPPVLDSDGSFFLYSKLTVDKSRWQQGNVFSCSVMHEALHNHYTQKSLSLSPGGGSGGSEVQLVESGGGLVKPGGSLRLSCAASGFTFSDYYMSWIRQAPGKGLEWVSYISNNGSTIYYADSVKGRFTISRDNAKNSLYLQMNSLRAEDTAVYYCARVRPGGSGNYWDWFDPWGQGTMVTVSS
# notes: PD-L1x4-1BB IgG-VH: PR000265 + VH of PR007295 at heavy-chain C-terminus
# B2: PR007145 (bispecific antibody, human IgG1, kappa)
# light: B1 light
# heavy: B1 heavy with N507R, N508S, M573L
# notes: PD-L1x4-1BB IgG-VH: PR000265 + VH of PR007297 at heavy-chain C-terminus
# B3: PR007138 (bispecific antibody, human IgG1, kappa)
# light: B1 light
# heavy: B1 heavy with A477V, A478T, S489N, L499Q, N507G, M573P
# notes: PD-L1x4-1BB IgG-VH: PR000265 + VH of PR007291 at heavy-chain C-terminus
# B4: PR007149 (bispecific antibody, human IgG1, kappa)
# light: B1 light
# heavy: B1 heavy with A477T, A478T, S489N, I491V, M573P
# notes: PD-L1x4-1BB IgG-VH: PR000265 + VH of PR007300 at heavy-chain C-terminus
# B5: PR007295 (antibody, human IgG1, V domains shown)
# VH: EVQLVESGGGLVKPGGSLRLSCAASGFTFSDYYMSWIRQAPGKGLEWVSYISNNGSTIYYADSVKGRFTISRDNAKNSLYLQMNSLRAEDTAVYYCARVRPGGSGNYWDWFDPWGQGTMVTVSS
# notes: HCAb, heavy chain only, human IgG1 Fc; also called R1016P147A09
# B6: PR007300 (antibody, human IgG1, V domains shown)
# VH: B5 VH with A23T, A24T, S35N, I37V, M119P
# notes: HCAb, heavy chain only, human IgG1 Fc; also called R1016P156E05
# B7: PR007297 (antibody, human IgG1, V domains shown)
# VH: B5 VH with N53R, N54S, M119L
# notes: HCAb, heavy chain only, human IgG1 Fc; also called R1016P149F10
# B8: PR007291 (antibody, human IgG1, V domains shown)
# VH: B5 VH with A23V, A24T, S35N, L45Q, N53G, M119P
# notes: HCAb, heavy chain only, human IgG1 Fc; also called R1016P145C07
# B9: PR007286 (antibody, human IgG1, V domains shown)
# VH: EVQLVESGGGLVKPGGSLRLSCAASGFTFSDYYMSWIRQAPGKGLEWVSYISSSGSTIYYADSVKGRFTISRDNAKNSLYLQMNSLRAEDTAVYYCARVKPVAGTWDWFDPWGQGTPVTVSS
# notes: HCAb, heavy chain only, human IgG1 Fc; also called R1016P142D03
# B10: PR007296 (antibody, human IgG1, V domains shown)
# VH: EVQLVESGGGLVKPGGSLRLSCVASGFTFSDYYMSWFRQAPGKGLEWVSYISGSGTTIDYADSVKGRFTISRDNAKNSLYLQMNSLRAEDTAVYYCAREREAVAGTLDFDNWGQGTPVTVSS
# notes: HCAb, heavy chain only, human IgG1 Fc; also called R1016P147B10
# Molecular target: T1, human 4-1BB on CHO-K1 cells (human, UniProt Q07011 24-255)
# T1 construct: whole, on cells; also called CHO-K1/hu 4-1BB; CHO-K1/hu4-1BB
# Test: FACS, CHO-K1/hu4-1BB cells
# Method: The binding abilities of the antibody molecules to a CHO-K1 cell strain highly expressing human 4-1BB (CHO-K1/hu4-1BB, GenScript, M00538) and a CHO-K1 cell strain highly expressing cynomolgus monkey 4-1BB (CHO-K1/cyno4-1BB, GenScript, M00569) were determined by flow cytometry FACS. Specifically, the cells were digested and resuspended in a complete medium, and the cell density was adjusted to 2×10⁶ cells/mL. Then, the cells were seeded in a 96-well V-bottom plate (Corning, #3894) at 100 μL/well (2×10⁵ cells/well) and centrifuged at 4° C. for 5 min, and the supernatant was discarded. Then, the serially diluted antibody molecules were added to the 96-well plate at 100 μL/well, and the mixtures were well mixed. The antibody molecules might serially diluted 3-fold from the highest final concentration 200 nM to obtain a total of 12 concentrations. hIgG1 iso (CrownBio, #C0001) was used as an isotype control. The cells were incubated at 4° C. for 1 h away from light. Then, the cells in each well were rinsed twice with 100 μL of pre-cooled FACS buffer (PBS buffer containing 0.5% BSA) and centrifuged at 500 g at 4° C. for 5 min, and then the supernatant was discarded. […] Then, the cells in each well were then rinsed twice with 200 μL of pre-cooled FACS buffer and centrifuged at 500 g at 4° C. for 5 min, and then the supernatant was discarded. Finally, a pre-cooled FACS buffer was added at 200 μL/well to resuspend the cells. The fluorescence signal values were read using a BD FACS CANTOII flow cytometer.
# T1 sequence (Q07011 24-255): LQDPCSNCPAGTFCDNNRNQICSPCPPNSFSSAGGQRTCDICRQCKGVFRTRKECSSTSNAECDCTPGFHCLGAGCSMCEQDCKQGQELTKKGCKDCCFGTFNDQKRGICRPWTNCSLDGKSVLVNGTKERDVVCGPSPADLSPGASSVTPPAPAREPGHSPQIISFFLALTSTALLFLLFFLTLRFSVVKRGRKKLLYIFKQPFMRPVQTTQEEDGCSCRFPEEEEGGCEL
row,binding result,Binder
1,binds,B1
2,binds,B2
3,binds,B3
4,binds,B4

# Molecular target: T1, human 4-1BB on CHO-K1 cells
# Test: FACS, CHO-K1/hu 4-1BB cells
row,binding result,Binder
1,binds,B5
2,binds,B6
3,binds,B7
4,binds,B8
5,binds,B9
6,binds,B10

# Molecular target: 4-1BB on HEK293/4-1BB/NF-kb reporter cells
# Test: cell-based or functional assay
row,"EC50, NF-kb luciferase reporter, CHO-K1/CD32b crosslinking [nM]",Binder
1,< 0.8,B5
2,< 0.8,B6
3,< 0.8,B7
4,< 0.8,B8
5,< 0.8,B9
6,< 0.8,B10

# Molecular target: T2, human PD-L1 on CHO-K1 cells (human, UniProt Q9NZQ7 19-290)
# T2 construct: whole, on cells; also called CHO-K1/hPDL1; CHO-K1/hPD-L1
# Test: FACS, CHO-K1/hPD-L1 cells
# T2 sequence (Q9NZQ7 19-290): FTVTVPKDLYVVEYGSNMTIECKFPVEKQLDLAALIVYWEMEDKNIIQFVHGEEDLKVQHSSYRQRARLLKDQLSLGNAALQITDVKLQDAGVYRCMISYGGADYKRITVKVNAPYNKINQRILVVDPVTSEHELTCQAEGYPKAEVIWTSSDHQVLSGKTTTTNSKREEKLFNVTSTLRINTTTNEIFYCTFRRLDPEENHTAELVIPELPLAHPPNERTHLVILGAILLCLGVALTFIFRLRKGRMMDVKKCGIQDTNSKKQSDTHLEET
row,binding result,Binder
1,binds,B1
2,binds,B2
3,binds,B3
4,binds,B4
